Ends that are not written are not given here.

Data set [1] deals with separase biosensor H2B-mRuby2-Scc1(142-467)-mNeonGreen with deletion of Scc1 aa 251 to 260 (UniProt O60216).
Data set [2] deals with separase biosensor H2B-mRuby2-Scc1(142-467)-mNeonGreen with 255Leu-Pro to Ala-Ala (UniProt O60216).
Data set [3] addresses T1, separase biosensor H2B-mRuby2-Scc1(142-467)-mNeonGreen, wild-type (UniProt O60216).
T1 sequence (O60216 whole entry, looked up): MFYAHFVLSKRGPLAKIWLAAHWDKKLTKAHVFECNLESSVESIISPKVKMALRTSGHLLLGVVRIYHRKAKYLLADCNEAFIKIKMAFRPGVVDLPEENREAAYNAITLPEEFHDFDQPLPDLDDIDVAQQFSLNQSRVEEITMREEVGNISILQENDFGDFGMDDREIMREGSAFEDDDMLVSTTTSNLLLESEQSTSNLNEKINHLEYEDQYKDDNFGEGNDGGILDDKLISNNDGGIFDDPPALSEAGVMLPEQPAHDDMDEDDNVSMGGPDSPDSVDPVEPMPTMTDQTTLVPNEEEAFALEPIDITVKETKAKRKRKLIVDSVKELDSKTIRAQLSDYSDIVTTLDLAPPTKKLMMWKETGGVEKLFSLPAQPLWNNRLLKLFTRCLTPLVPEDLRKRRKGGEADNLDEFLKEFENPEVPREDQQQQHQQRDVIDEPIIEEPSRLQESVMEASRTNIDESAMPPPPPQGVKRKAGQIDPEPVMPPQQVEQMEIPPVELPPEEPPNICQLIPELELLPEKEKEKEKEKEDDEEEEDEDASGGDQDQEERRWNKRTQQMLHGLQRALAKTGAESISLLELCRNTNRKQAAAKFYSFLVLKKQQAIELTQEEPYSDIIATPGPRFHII

Data set [4] addresses 35S-labeled human Scc1 fragment (residues 142-300) (UniProt O60216).
Data set [5] deals with Mca-DDREIMREGS-Dnp peptide containing Scc1 site 1.
Data set [6] concerns the target catalytically-dead separase with intact autocleavage sites (UniProt Q14674).
Data set [7] relates to securin^RE fragment containing residues 93-150.
Data set [8] deals with T2, active human separase, securin-free (ClpXP-activated separase obtained from the securin-separase fusion after … (human, UniProt Q14674 1-2120)).
T2 construct: also called active separase; apo separase; not shown: N-terminal remnant left after TEV cleavage of the fusion (3x FLAG tag between TEV site and separase)
The experiment in a line: in vitro cleavage of 35S-labeled securin^RE fragments with LP mutations by separase; interaction inferred from cleavage. The text has this: An approach for investigating the importance of ¹³⁰LPE for securin binding to separase was developed. It is known that fungal securin can be converted to a separase substrate by making mutations that convert the pseudosubstrate site into a cleavage site⁴. The equivalent mutations were made in human securin (¹¹⁸FP to RE) and this securin^RE mutant was used to test the importance of ¹³⁰LPE for securin engagement with separase. An LP sequence a few residues further downstream (¹³⁹LP) was also tested. […] A securin^RE fragment containing residues 93-150 was then tested. […] Mutation of ¹³⁹LP had no effect, except when combined with mutation of ¹³⁰LP.

T2 sequence (Q14674 other isoform, or with tags, fused parts or gaps): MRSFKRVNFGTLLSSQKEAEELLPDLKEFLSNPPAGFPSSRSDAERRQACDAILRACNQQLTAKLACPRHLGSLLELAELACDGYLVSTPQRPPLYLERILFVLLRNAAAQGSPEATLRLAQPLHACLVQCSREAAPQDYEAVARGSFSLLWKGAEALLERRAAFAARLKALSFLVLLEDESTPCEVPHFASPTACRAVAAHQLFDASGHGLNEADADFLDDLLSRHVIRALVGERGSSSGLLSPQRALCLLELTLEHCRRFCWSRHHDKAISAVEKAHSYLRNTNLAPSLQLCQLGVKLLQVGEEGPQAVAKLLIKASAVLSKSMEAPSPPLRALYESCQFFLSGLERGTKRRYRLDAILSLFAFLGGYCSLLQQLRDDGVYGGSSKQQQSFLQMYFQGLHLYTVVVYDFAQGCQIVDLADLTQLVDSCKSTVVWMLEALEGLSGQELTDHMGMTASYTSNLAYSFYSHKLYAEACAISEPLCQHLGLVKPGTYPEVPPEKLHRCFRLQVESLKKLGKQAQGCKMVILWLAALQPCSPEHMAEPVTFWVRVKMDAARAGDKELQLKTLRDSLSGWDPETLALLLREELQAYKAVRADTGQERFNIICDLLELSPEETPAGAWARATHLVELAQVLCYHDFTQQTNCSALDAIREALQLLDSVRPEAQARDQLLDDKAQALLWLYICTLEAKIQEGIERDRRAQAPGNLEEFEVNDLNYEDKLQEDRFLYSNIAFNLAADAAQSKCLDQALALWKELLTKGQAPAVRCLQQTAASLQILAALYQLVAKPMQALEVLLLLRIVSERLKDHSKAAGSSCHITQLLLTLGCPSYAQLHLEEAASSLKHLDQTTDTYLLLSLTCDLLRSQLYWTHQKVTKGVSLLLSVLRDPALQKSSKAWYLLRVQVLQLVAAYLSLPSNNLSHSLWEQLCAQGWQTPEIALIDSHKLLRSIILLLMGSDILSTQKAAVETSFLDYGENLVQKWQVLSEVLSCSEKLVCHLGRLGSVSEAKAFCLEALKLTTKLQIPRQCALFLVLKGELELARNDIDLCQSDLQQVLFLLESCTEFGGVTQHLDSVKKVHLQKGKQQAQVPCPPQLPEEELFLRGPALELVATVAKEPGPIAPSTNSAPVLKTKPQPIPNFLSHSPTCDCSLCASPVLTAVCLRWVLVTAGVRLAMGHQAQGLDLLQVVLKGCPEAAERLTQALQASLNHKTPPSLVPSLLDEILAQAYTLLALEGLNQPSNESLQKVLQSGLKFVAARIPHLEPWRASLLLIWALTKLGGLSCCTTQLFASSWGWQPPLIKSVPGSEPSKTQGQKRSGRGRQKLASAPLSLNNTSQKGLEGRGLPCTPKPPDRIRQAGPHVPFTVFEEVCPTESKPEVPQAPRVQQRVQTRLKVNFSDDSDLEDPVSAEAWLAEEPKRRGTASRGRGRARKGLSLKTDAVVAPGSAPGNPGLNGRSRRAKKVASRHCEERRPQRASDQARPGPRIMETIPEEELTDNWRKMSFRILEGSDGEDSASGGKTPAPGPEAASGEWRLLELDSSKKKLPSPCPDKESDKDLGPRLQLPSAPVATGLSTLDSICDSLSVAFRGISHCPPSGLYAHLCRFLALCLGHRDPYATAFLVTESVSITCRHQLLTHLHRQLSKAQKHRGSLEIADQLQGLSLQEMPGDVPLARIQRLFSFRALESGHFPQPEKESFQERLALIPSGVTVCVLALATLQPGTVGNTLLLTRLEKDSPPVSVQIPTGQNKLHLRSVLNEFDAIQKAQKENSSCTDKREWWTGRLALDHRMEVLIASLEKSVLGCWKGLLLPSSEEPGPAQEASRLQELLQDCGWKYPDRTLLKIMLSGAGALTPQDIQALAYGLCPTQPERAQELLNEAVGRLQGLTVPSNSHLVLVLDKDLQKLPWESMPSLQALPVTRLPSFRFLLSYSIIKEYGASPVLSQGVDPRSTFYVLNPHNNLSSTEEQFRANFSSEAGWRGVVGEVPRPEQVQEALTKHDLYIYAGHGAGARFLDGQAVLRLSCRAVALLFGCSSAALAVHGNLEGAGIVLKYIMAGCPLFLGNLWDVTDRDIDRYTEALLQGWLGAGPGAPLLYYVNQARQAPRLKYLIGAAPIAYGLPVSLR
catalytically-dead separase with intact autocleavage sites, sequence (Q14674 whole entry S1126A/C2029S, the tested form may be a part): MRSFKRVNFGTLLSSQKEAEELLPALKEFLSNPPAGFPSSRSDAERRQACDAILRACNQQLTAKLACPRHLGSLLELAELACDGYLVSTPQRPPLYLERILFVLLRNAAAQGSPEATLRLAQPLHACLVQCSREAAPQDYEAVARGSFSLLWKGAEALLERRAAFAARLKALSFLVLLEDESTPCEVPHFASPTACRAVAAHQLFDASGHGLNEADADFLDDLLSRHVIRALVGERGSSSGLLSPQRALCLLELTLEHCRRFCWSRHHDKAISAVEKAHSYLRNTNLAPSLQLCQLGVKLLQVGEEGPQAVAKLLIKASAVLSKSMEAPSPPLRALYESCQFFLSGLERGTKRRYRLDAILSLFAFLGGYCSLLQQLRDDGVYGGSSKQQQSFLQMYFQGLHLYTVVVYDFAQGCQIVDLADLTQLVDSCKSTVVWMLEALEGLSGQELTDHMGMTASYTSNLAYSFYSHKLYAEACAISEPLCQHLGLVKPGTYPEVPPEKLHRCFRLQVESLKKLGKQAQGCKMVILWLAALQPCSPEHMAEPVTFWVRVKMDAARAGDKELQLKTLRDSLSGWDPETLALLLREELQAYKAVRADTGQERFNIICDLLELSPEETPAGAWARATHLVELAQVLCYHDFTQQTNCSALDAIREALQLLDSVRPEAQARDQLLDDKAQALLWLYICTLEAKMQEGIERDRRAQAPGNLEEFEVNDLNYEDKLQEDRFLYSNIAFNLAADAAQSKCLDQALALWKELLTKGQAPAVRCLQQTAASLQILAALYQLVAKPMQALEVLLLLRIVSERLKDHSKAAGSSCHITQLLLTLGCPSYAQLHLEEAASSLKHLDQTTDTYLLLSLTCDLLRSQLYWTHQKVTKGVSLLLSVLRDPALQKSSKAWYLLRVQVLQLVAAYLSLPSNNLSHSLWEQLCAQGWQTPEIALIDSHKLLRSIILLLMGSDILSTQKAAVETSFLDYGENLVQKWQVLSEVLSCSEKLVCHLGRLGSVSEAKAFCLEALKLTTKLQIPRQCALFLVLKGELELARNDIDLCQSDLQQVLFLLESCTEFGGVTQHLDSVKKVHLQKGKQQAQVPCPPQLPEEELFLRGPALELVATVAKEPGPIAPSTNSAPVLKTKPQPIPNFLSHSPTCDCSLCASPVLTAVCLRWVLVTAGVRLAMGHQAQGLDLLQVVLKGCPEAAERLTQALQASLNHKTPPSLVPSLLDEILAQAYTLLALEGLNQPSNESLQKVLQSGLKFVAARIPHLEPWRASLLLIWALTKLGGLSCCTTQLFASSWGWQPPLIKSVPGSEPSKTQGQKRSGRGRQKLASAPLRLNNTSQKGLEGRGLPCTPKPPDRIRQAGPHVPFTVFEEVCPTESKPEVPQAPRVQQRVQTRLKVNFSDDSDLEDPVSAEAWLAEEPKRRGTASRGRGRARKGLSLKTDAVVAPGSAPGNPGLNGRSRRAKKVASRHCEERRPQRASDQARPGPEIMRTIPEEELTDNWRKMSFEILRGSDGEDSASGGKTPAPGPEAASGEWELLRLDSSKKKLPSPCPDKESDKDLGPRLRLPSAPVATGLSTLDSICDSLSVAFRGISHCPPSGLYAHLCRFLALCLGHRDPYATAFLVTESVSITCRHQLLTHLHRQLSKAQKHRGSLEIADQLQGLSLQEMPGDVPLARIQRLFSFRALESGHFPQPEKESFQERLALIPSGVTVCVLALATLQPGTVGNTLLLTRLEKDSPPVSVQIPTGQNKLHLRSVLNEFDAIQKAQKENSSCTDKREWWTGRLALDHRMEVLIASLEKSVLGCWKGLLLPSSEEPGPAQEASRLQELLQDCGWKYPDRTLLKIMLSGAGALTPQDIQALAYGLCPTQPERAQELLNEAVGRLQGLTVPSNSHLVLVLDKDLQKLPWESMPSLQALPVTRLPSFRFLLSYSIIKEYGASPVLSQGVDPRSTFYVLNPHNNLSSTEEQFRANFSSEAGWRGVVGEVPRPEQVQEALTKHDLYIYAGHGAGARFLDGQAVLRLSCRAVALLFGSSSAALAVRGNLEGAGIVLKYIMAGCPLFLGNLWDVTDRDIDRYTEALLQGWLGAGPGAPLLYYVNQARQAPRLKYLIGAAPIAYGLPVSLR

Turning to “separase in human U2OS cells (endogenous)”, the biosensor cleavage efficiency entry is listed as “yielded identical results as the double alanine mutation” in data set [1] and “reduced cleavage efficiency by 50%” in data set [2]. The “biosensor cleavage during anaphase” value in data set [3] is “efficient biosensor cleavage was observed during anaphase”.

Take securinΔ160-separase: in data set [4], the “cleavage of the Scc1 fragment in the gel-based assay” value (shortened to “cleavage of the Scc1 fragment”) is “exhibited efficient cleavage of the Scc1 substrate”. In addition, the “peptide cleavage activity (Michaelis-Menten)” value (“peptide cleavage activity” for short) in data set [5] was “no significant differences between the peptide cleavage activities of the three securinΔ-separase proteins and separase with no securin bound”.

securinΔ138-separase: in data set [4], the “cleavage of the Scc1 fragment” value is on record as “exhibited efficient cleavage of the Scc1 substrate”. Further, in data set [5], the “peptide cleavage activity” value is “no significant differences between the peptide cleavage activities of the three securinΔ-separase proteins and separase with no securin bound”.

As to “active human separase, securin-free (ClpXP-activated separase obtained from the securin-separase fusion after TEV protease cleavage and ClpXP removal of securin)”, the cleavage in trans entry in data set [6] is given as “Separase also cleaved a catalytically-dead separase with intact autocleavage sites”. For the same molecule, the “cleavage of securin^RE fragment” value in data set [7] was “This fragment was 50% cleaved by separase”. For the same molecule, the “cleavage of an Scc1 fragment in vitro” value in data set [4] was “incubation with purified ClpXP removed securin and activated separase, as evaluated by cleavage of an Scc1 fragment in vitro”. The KM entry in data set [5] is “KM of 70±30 µM”.

Consider securinΔ127-separase, for which the “cleavage of the Scc1 fragment” value in data set [4] was “exhibited no cleavage activity in this assay”. Further, in data set [5], the “peptide cleavage activity” value was “no significant differences between the peptide cleavage activities of the three securinΔ-separase proteins and separase with no securin bound”.

B1: securin^RE fragment containing residues 93-150 (other)
chain: MTEKTVKAKSSVPASDDAYPEIEKFREFNPLDFESFDLPEEHQIAHLPLSGVPLMILD
modifications: also: 35S-methionine label
notes: Pseudosubstrate motif converted into a separase cleavage site; Translated in vitro with ZZ tag, released by TEV protease; also called 35S-labeled securin fragment (aa 93-150)
With B1, in data set [8], the binding result is “binds”.
